Reference: publication PMC4678825

Target: Qβ replicase core complex (β-subunit, EF-Tu and EF-Ts), wild type (E. coli | bacteriophage Qβ)
Test: SEC-MALS

Qβ replicase core complex (β-subunit, EF-Tu and EF-Ts), wild type
stoichiometry N: 2
